# Key:
# crystal structure = target: the molecule itself; assay: crystal structure
# [1] = target: the molecule itself; assay: in vitro reconstitution of S-layer sheets, seen by cryo-EM and cryo-ET
Protein,stoichiometry N (crystal structure),binding result [1]
"RsaA(249-1026), the N-terminally cleaved RsaA in the crystals (domain or fragment) GSTLSLTTGTDTLTGTANNDTFVAGEVAGAATLTVGDTLSGGAGTDVLNWVQAAAVTALPTGVTISGIETMNVTSGAAITLNTSSGVTGLTALNTNTSGAAQTVTAGAGQNLTATTAAQAANNVAVDGGANVTVASTGVTSGTTTVGANSAASGTVSVSVANSSTTTTGAIAVTGGTAVTVAQTAGNAVNTTLTQADVTVTGNSSTTAVTVTQTAAATAGATVAGRVNGAVTITDSAAASATTAGKIATVTLGSFGAATIDSSALTTVNLSGTGTSLGIGRGALTATPTANTLTLNVNGLTTTGAITDSEAAADDGFTTINIAGSTASSTIASLVAADATTLNISGDARVTITSHTAAALTGITVTNSVGATLGAELATGLVFTGGAGADSILLGATTKAIVMGAGDDTVTVSSATLGAGGSVNGGDGTDVLVANVNGSSFSADPAFGGFETLRVAGAAAQGSHNANGFTALQLGATAGATTFTNVAVNVGLTVLAAPTGTTTVTLANATGTSDVFNLTLSSSAALAAGTVALAGVETVNIAATDTNTTAHVDTLTLQATSAKSIVVTGNAGLNLTNTGNTAVTSFDASAVTGTGSAVTFVSANTTVGEVVTIRGGAGADSLTGSATANDTIIGGAGADTLVYTGGTDTFTGGTGADIFDINAIGTSTAFVTITDAAVGDKLDLVGISTNGAIADGAFGAAVTLGAAATLAQYLDAAAAGDGSGTSVAKWFQFGGDTYVVVDSSAGATFVSGADAVIKLTGLVTLTTSAFATEVLTLA",6,
"RsaA, S-layer protein of Caulobacter crescentus CB15N (NA1000), full length, purified (natural protein) MAYTTAQLVTAYTNANLGKAPDAATTLTLDAYATQTQTGGLSDAAALTNTLKLVNSTTAVAIQTYQFFTGVAPSAAGLDFLVDSTTNTNDLNDAYYSKFAQENRFINFSINLATGAGAGATAFAAAYTGVSYAQTVATAYDKIIGNAVATAAGVDVAAAVAFLSRQANIDYLTAFVRANTPFTAAADIDLAVKAALIGTILNAATVSGIGGYATATAAMINDLSDGALSTDNAAGVNLFTAYPSSGVSGSTLSLTTGTDTLTGTANNDTFVAGEVAGAATLTVGDTLSGGAGTDVLNWVQAAAVTALPTGVTISGIETMNVTSGAAITLNTSSGVTGLTALNTNTSGAAQTVTAGAGQNLTATTAAQAANNVAVDGGANVTVASTGVTSGTTTVGANSAASGTVSVSVANSSTTTTGAIAVTGGTAVTVAQTAGNAVNTTLTQADVTVTGNSSTTAVTVTQTAAATAGATVAGRVNGAVTITDSAAASATTAGKIATVTLGSFGAATIDSSALTTVNLSGTGTSLGIGRGALTATPTANTLTLNVNGLTTTGAITDSEAAADDGFTTINIAGSTASSTIASLVAADATTLNISGDARVTITSHTAAALTGITVTNSVGATLGAELATGLVFTGGAGADSILLGATTKAIVMGAGDDTVTVSSATLGAGGSVNGGDGTDVLVANVNGSSFSADPAFGGFETLRVAGAAAQGSHNANGFTALQLGATAGATTFTNVAVNVGLTVLAAPTGTTTVTLANATGTSDVFNLTLSSSAALAAGTVALAGVETVNIAATDTNTTAHVDTLTLQATSAKSIVVTGNAGLNLTNTGNTAVTSFDASAVTGTGSAVTFVSANTTVGEVVTIRGGAGADSLTGSATANDTIIGGAGADTLVYTGGTDTFTGGTGADIFDINAIGTSTAFVTITDAAVGDKLDLVGISTNGAIADGAFGAAVTLGAAATLAQYLDAAAAGDGSGTSVAKWFQFGGDTYVVVDSSAGATFVSGADAVIKLTGLVTLTTSAFATEVLTLA",,binds

# From paper PMC5699643 (Nature microbiology, 2017)
